Assay results reported in PMC12135187, “A role for pH dynamics regulating transcription factor DNA-binding selectivity”.
Positions count from the first letter of the chain named.

Assays:
Conditions in all cases: protein: recombinant; tags: N-terminal GST (pGEX-6P-2); label: 6-FAM; blunt
FOXC2 DBD H122K [1] = biological target: T1, FOXC2 DBD H122K (UniProt Q99958 72-172, H122K); assay: fluorescence anisotropy; pH 7.0; 20 mM HEPES, 140 mM KCl, 0.05 mM TCEP-HCl, pH 7.0 or 7.5 (pH titration 6.8-8.2), room temperature 30 min, 7.5 nM FAM-DNA
T1 sequence: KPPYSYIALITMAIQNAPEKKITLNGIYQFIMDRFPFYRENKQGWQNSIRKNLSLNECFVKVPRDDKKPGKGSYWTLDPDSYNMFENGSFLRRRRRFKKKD

FOXM1 DBD H287K [2] = biological target: T2, FOXM1 DBD H287K (UniProt Q08050 222-360, H287K); assay: as above
T2 sequence: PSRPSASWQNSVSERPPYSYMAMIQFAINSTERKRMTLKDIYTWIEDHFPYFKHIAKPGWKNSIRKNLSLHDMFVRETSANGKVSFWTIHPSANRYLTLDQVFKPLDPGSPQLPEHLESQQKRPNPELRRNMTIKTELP

FOXC2 DBD H122K [3] = biological target: T1, FOXC2 DBD H122K; assay: fluorescence anisotropy; pH 7.5; 20 mM HEPES, 140 mM KCl, 0.05 mM TCEP-HCl, pH 7.0 or 7.5 (pH titration 6.8-8.2), room temperature 30 min, 7.5 nM FAM-DNA
FOXN1 DBD WT = biological target: T3, FOXN1 DBD WT (UniProt O15353 270-366); assay: fluorescence anisotropy; pH 7.0; higher affinity than at pH 7.5; 20 mM HEPES, 140 mM KCl, 0.05 mM TCEP-HCl, pH 7.0 or 7.5 (pH titration 6.8-8.2), room temperature 30 min, 7.5 nM FAM-DNA
T3 sequence: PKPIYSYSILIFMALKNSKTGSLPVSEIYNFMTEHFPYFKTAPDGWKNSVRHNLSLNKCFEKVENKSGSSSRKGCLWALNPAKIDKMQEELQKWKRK

FOXM1 DBD WT = biological target: T4, FOXM1 DBD WT (UniProt Q08050 222-360); assay: as above
T4 sequence: T2 sequence with K66H

FOXC2 DBD WT = biological target: T5, FOXC2 DBD WT (UniProt Q99958 72-172); assay: as above
T5 sequence: T1 sequence with K51H

FOXC2 DBD H122N [4] = biological target: T6, FOXC2 DBD H122N (UniProt Q99958 72-172, H122N); assay: fluorescence anisotropy; pH 7.0; 20 mM HEPES, 140 mM KCl, 0.05 mM TCEP-HCl, pH 7.0 or 7.5 (pH titration 6.8-8.2), room temperature 30 min, 7.5 nM FAM-DNA
T6 sequence: T1 sequence with K51N

FOXM1 DBD H287K [5] = biological target: T2, FOXM1 DBD H287K; assay: fluorescence anisotropy; pH 7.5; 20 mM HEPES, 140 mM KCl, 0.05 mM TCEP-HCl, pH 7.0 or 7.5 (pH titration 6.8-8.2), room temperature 30 min, 7.5 nM FAM-DNA
FOXC2 DBD H122N [6] = biological target: T6, FOXC2 DBD H122N; assay: fluorescence anisotropy; pH 7.5; similar to WT at pH 7.5; 20 mM HEPES, 140 mM KCl, 0.05 mM TCEP-HCl, pH 7.0 or 7.5 (pH titration 6.8-8.2), room temperature 30 min, 7.5 nM FAM-DNA

B1: FkhP (dsDNA)
DNA 1: CCATAAACAAC
DNA 2: GTTGTTTATGG
Ka (FOXC2 DBD H122K [1]): 0.86 ± 0.15 μM (as printed; KA = 1/KD, so presumably μM^-1) | Ka (FOXM1 DBD H287K [2]): 4.1 ± 0.81 μM (as printed; KA = 1/KD, so presumably μM^-1) | Ka (FOXC2 DBD H122K [3]): 0.91 ± 0.08 μM (as printed; KA = 1/KD, so presumably μM^-1) | binding result (FOXN1 DBD WT): binds | binding result (FOXM1 DBD WT): binds | binding result (FOXC2 DBD WT): binds | Ka (FOXC2 DBD H122N [4]): 0.14 ± 0.03 μM (as printed; KA = 1/KD, so presumably μM^-1) | Ka (FOXM1 DBD H287K [5]): 1.8 ± 0.27 μM (as printed; KA = 1/KD, so presumably μM^-1) | Ka (FOXC2 DBD H122N [6]): 0.1 ± 0.01 μM (as printed; KA = 1/KD, so presumably μM^-1)
